Assay [1] has as its system HIV-1 LTR promoter transactivation by HIV-1 Tat. In words: Transactivation assay, HIV-1 LTR luciferase reporter with HIV-1 Tat. Particulars: HEK293 cells co-transfected with pHIV1LTR-Luc, HIV-1 Tat and the human ORF; relative luciferase activity 24 h post-transfection; positive if >=2 or <=0.5 and p<0.05. It is filed as cell-based. From the text: The plasmids pHIV1LTR-Luc or pHTLV1LTR-Luc containing a luciferase reporter gene under the control of the HIV-1 or HTLV-1 LTR promoters and plasmids expressing either HIV-1 Tat or HTLV-1 Tax and each human ORF found to interact with viral proteins were transfected into 10^4 HEK293 cells using the calcium phosphate method. Twenty-four hours post-transfection, cells were washed three times with PBS, lysed and luciferase activities determined from two independent transfection experiments in triplicate. We computed a paired t-test to assess the difference of the means between samples with and without the human interactor. For a trial to be considered positive, the relative luciferase activities has to be >=2 or <=0.5, and the p-value of the t-test<0.05.
Many HIV/HTLV-human interactions in our data set (130/212) involved the retroviral transactivator proteins HTLV-1 Tax (57/212), HTLV-2 Tax2 (49/212), HIV-1 Tat (10/212) and HIV-2 Tat (14/212). Human proteins interacting with viral transactivators likely influence Tat or Tax transactivation. Expression vectors encoding human ORFs and HIV-1 Tat or HTLV-1 Tax proteins were tested in a transactivation reporter assay against reporter plasmids harboring HIV-1 or HTLV-1 viral promoter sequences cloned upstream of the luciferase reporter gene. In the controls Tat or Tax respectively activated HIV or HTLV LTR-directed gene expression. Co-transfection of interacting human ORFs identified 71 proteins (54% of the 131 human targets in our data set) that regulated HIV (26.7% of targets), HTLV (37.4% of targets) or both (9.9% of targets) LTR promoter activation by Tat or Tax (see Tables 7 and 8; Table 13 below containing quantitative data on the regulation of transactivation). Wherever not expressly specified, constructs used herein were generally made by sub-cloning entry clones from the ORFeome V3.1 into suitable destination vectors.
(In a reporter assay the amount or activity of a reporter protein is the signal.)

In assay [2] the test system is HTLV-1 LTR promoter transactivation by HTLV-1 Tax. In words: Transactivation assay, HTLV-1 LTR luciferase reporter with HTLV-1 Tax. It is filed as cell-based. The settings on record: HEK293 cells co-transfected with pHTLV1LTR-Luc, HTLV-1 Tax and the human ORF; relative luciferase activity 24 h post-transfection; positive if >=2 or <=0.5 and p<0.05.

B1: TRIP6: human host interactor protein, Gene ID 7205, expressed from transfected ORF vector (protein)
chain: MSGPTWLPPKQPEPARAPQGRAIPRGTPGPPPAHGAALQPHPRVNFCPLPSEQCYQAPGGPEDRGPAWVGSHGVLQHTQGLPADRGGLRPGSLDAEIDLLSSTLAELNGGRGHASRRPDRQAYEPPPPPAYRTGSLKPNPASPLPASPYGGPTPASYTTASTPAGPAFPVQVKVAQPVRGCGPPRRGASQASGPLPGPHFPLPGRGEVWGPGYRSQREPGPGAKEEAAGVSGPAGRGRGGEHGPQVPLSQPPEDELDRLTKKLVHDMNHPPSGEYFGQCGGCGEDVVGDGAGVVALDRVFHVGCFVCSTCRAQLRGQHFYAVERRAYCEGCYVATLEKCATCSQPILDRILRAMGKAYHPGCFTCVVCHRGLDGIPFTVDATSQIHCIEDFHRKFAPRCSVCGGAIMPEPGQEETVRIVALDRSFHIGCYKCEECGLLLSSEGECQGCYPLDGHILCKACSAWRIQELSATVTTDC
In turn, B1 returned an HIV_LTR transactiv. in assay [1] of 2.87 fold change.

B2: TRAF2: human host interactor protein, Gene ID 7186, expressed from transfected ORF vector (protein)
chain: MAAASVTPPGSLELLQPGFSKTLLGTKLEAKYLCSACRNVLRRPFQAQCGHRYCSFCLASILSSGPQNCAACVHEGIYEEGISILESSSAFPDNAARREVESLPAVCPSDGCTWKGTLKEYESCHEGRCPLMLTECPACKGLVRLGEKERHLEHECPERSLSCRHCRAPCCGADVKAHHEVCPKFPLTCDGCGKKKIPREKFQDHVKTCGKCRVPCRFHAIGCLETVEGEKQQEHEVQWLREHLAMLLSSVLEAKPLLGDQSHAGSELLQRCESLEKKTATFENIVCVLNREVERVAMTAEACSRQHRLDQDKIEALSSKVQQLERSIGLKDLAMADLEQKVLEMEASTYDGVFIWKISDFARKRQEAVAGRIPAIFSPAFYTSRYGYKMCLRIYLNGDGTGRGTHLSLFFVVMKGPNDALLRWPFNQKVTLMLLDQNNREHVIDAFRPDVTSSSFQRPVNDMNIASGCPLFCPVSKMEAKNSYVRDDAIFIKAIVDLTGL
The molecule B2 yielded an HIV_LTR transactiv. in assay [1] of 0.22 fold change.

B3: C16orf33: human host interactor protein, Gene ID 79622, expressed from transfected ORF vector (protein)
chain: MDVFQEGLAMVVQDPLLCDLPIQVTLEEVNSQIALEYGQAMTVRVCKMDGEVMPVVVVQSATVLDLKKAIQRYVQLKQEREGGIQHISWSYVWRTYHLTSAGEKLTEDRKKLRDYGIRNRDEVSFIKKLRQK
With B3, the HIV_LTR transactiv. in assay [1] was 2.50 fold change.

B4: DLX2: human host interactor protein, Gene ID 1746, expressed from transfected ORF vector (protein)
chain: MTGVFDSLVADMHSTQIAASSTYHQHQQPPSGGGAGPGGNSSSSSSLHKPQESPTLPVSTATDSSYYTNQQHPAGGGGGGGSPYAHMGSYQYQASGLNNVPYSAKSSYDLGYTAAYTSYAPYGTSSSPANNEPEKEDLEPEIRIVNGKPKKVRKPRTIYSSFQLAALQRRFQKTQYLALPERAELAASLGLTQTQVKIWFQNRRSKFKKMWKSGEIPSEQHPGASASPPCASPPVSAPASWDFGVPQRMAGGGGPGSGGSGAGSSGSSPSSAASAFLGNYPWYHQTSGSASHLQATAPLLHPTQTPQPHHHHHHHGGGGAPVSAGTIF
B4 had an HIV_LTR transactiv. in assay [1] of 0.24 fold change. For the same molecule, the HTLV_LTR transactiv. in assay [2] is recorded as 0.30 fold change.

B5: FANCG: human host interactor protein, Gene ID 2189, expressed from transfected ORF vector (protein)
chain: MSRQTTSVGSSCLDLWREKNDRLVRQAKVAQNSGLTLRRQQLAQDALEGLRGLLHSLQGLPAAVPVLPLELTVTCNFIILRASLAQGFTEDQAQDIQRSLERVLETQEQQGPRLEQGLRELWDSVLRASCLLPELLSALHRLVGLQAALWLSADRLGDLALLLETLNGSQSGASKDLLLLLKTWSPPAEELDAPLTLQDAQGLKDVLLTAFAYRQGLQELITGNPDKALSSLHEAASGLCPRPVLVQVYTALGSCHRKMGNPQRALLYLVAALKEGSAWGPPLLEASRLYQQLGDTTAELESLELLVEALNVPCSSKAPQFLIEVELLLPPPDLASPLHCGTQSQTKHILASRCLQTGRAGDAAEHYLDLLALLLDSSEPRFSPPPSPPGPCMPEVFLEAAVALIQAGRAQDALTLCEELLSRTSSLLPKMSRLWEDARKGTKELPYCPLWVSATHLLQGQAWVQLGAQKVAISEFSRCLELLFRATPEEKEQGAAFNCEQGCKSDAALQQLRAAALISRGLEWVASGQDTKALQDFLLSVQMCPGNRDTYFHLLQTLKRLDRRDEATALWWRLEAQTKGSHEDALWSLPLYLESYLSWIRPSDRDAFLEEFRTSLPKSCDL
In assay [1], B5 returned an HIV_LTR transactiv. of 0.27 fold change. The same molecule had an HTLV_LTR transactiv. in assay [2] of 3.48 fold change.

B6: GCC1: human host interactor protein, Gene ID 79571, expressed from transfected ORF vector (protein)
chain: MEKFGMNFGGGPSKKDLLETIETQKKQLLQYQARLKDVVRAYKSLLKEKEALEASIKVLSVSHEADVGLAGVQLPGLTFPDSVDDRCSTHSEDSTGTATSLDTAASLTSTKGEFGVEDDRPARGPPPPKSEEASWSESGVSSSSGDGPFAGGEVDKRLHQLKTQLATLTSSLATVTQEKSRMEASYLADKKKMKQDLEDASNKAEEERARLEGELKGLQEQIAETKARLITQQHDRAQEQSDHALMLRELQKLLQEERTQRQDLELRLEETREALAGRAYAAEQMEGFELQTKQLTREVEELKSELQAIRDEKNQPDPRLQELQEEAARLKSHFQAQLQQEMRKTALAEDQLRQQSQVEEQRVAALENQISEVSELLGTYEKAKQKDQLAIQKLKERILQLDLENKTLALAASSRSPLDSHGEESSLDVNVLKDKMEKLKRLLQVAARKSQVTLDVEKLCDLEIMPSSEAADGEKATALYYQQELKQLKEEFERYKMRAQVVLKSKNTKDGNLGKELEAAQEQLAELKEKYISLRLSCEELEHQHQQEADDWKQELARLQQLHRQELERCQLDFRDRTLKLEEELHKQRDRALAVLTEKDLELEQLRSVALASGLPGRRSPVGGGGPGDPADTSSSDSLTQALQLAAANEPTFFLYAEQLARKEVEITSLRKQKHRLEVEVHQLQDRLLEEGERHREEVAALQSHIEKNIRDQSREGANLEYLKNIIYRFLTLPDSLGRQQTLTAILTILHFSPEEKQVIMRLPTSASWWPSGKR
B6 displayed an HIV_LTR transactiv. in assay [1] of 3.78 fold change. The HTLV_LTR transactiv. in assay [2] is 0.29 fold change.

B7: C20orf141: human host interactor protein, Gene ID 128653, expressed from transfected ORF vector (protein)
chain: MTRLCLPRPEAREDPIPVPPRGLGAGEGSGSPVRPPVSTWGPSWAQLLDSVLWLGALGLTIQAVFSTTGPALLLLLVSFLTFDLLHRPAGHTLPQRKLLTRGQSQGAGEGPGQQEALLLQMGTVSGQLSLQDALLLLLMGLGPLLRACGMPLTLLGLAFCLHPWA
Turning to B7, the HIV_LTR transactiv. in assay [1] was 0.35 fold change. Further, in assay [2], the HTLV_LTR transactiv. was 2.80 fold change.

These data come from US20120090043A1, “TARGETS FOR RETROVIRUS ASSOCIATED DISEASES” (priority 2009, published 2012).
